In patent US20110293618A1 (MEDICAL AND BIOLOGICAL LABORATORIES, published 2011):

Experiments:
[1] = molecular target: T1, human CLCP1 (CUB, LCCL-homology, coagulation factor V/VIII homology domains protein), full length, on cells (human, UniProt Q96PD2 67-775); test: flow cytometry on NCI-H460-LNM35 cells
T1 construct: also called ESDN; DCBLD2
T1 sequence: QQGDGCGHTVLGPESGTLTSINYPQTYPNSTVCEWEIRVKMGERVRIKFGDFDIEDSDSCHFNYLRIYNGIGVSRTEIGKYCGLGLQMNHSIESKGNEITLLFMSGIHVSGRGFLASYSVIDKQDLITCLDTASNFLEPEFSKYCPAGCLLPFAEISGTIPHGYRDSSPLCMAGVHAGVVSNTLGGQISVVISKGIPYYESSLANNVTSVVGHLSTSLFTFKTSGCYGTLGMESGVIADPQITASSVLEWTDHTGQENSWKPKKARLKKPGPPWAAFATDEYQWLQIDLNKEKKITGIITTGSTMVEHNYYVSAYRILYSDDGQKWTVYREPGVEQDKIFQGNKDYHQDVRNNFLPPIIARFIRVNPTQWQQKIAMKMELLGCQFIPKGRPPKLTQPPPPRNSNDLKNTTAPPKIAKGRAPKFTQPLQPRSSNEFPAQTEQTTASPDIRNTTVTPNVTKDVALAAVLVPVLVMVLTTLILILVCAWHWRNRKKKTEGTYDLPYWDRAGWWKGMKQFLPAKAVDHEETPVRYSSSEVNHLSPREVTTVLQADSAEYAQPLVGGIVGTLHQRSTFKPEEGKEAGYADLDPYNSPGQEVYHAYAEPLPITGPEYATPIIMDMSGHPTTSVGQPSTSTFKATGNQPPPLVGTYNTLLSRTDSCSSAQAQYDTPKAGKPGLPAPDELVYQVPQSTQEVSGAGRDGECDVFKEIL

[2] = molecular target: T2, purified protein of the whole extracellular domain of human CLCP1 (amino acid positions 1 to 526), myc-His … (human, UniProt Q96PD2 67-526); test: ELISA on purified extracellular domain protein, culture supernatants
T2 construct: also called whole extracellular domain protein; complete extracellular domain protein; not shown: myc-His tag
T2 sequence: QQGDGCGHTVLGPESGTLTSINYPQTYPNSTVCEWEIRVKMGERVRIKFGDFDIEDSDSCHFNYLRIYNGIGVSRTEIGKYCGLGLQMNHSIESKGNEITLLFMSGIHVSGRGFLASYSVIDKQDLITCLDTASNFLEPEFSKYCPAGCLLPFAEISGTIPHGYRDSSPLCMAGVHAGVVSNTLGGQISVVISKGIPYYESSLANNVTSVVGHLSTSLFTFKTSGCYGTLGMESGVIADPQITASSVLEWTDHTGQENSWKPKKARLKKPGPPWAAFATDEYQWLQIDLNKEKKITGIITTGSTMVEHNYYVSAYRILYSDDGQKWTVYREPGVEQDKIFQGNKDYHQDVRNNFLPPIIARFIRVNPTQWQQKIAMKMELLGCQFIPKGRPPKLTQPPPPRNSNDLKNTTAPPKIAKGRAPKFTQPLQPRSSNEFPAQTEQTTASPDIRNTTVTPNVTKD
Procedure: Using the culture supernatants whose IgG concentrations had been determined, the activities of the chimeric antibody, humanized antibody, and serine-substituted humanized antibody were assessed and compared by ELISA for the purified protein of the extracellular domain of CLCP1 described in Example 21. […] Thus, humanized FA19-1 was successfully designed (FIGS. 42 and 43).

[3] = molecular target: T3, E. coli-produced recombinant protein corresponding to aa 195-aa 453 in SEQ ID NO: 2 (human, UniProt Q96PD2 195-453); test: ELISA on purified E. coli fragment
T3 construct: pET28a, BL21, urea-solubilised, TALON-purified; vector-encoded tag residues not described
T3 sequence: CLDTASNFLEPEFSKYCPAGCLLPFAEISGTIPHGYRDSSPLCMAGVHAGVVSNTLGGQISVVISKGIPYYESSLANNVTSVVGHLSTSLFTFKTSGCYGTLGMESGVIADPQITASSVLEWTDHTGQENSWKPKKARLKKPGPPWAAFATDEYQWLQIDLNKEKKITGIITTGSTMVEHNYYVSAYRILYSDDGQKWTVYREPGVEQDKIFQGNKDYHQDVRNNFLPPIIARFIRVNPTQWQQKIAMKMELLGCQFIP
Procedure: (§1) Each antibody was assayed by ELISA using the purified proteins prepared described above.

[4] = molecular target: T4, E. coli-produced recombinant protein corresponding to aa 195-aa 461 in SEQ ID NO: 2 (human, UniProt Q96PD2 195-461); test: ELISA on purified E. coli fragment
T4 construct: pET28a expression system; vector-encoded tag residues not described
T4 sequence: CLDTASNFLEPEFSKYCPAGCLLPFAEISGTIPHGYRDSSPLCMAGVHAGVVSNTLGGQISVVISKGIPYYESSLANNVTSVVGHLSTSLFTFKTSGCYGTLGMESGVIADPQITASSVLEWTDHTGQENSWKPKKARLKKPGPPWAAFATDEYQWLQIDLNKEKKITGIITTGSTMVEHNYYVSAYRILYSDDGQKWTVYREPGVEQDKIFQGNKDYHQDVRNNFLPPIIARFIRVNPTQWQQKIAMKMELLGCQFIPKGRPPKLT
Procedure: as §1

B1: chimeric FA17-9 antibody (antibody, V domains shown)
VH: EVQLQQSGPELVKPGASVKMSCKASGYTFTTYVMHWVKQKPGQGLEWIGYINPYNDGTKYNEKFKGKATLTSDKSSSTAYMELSSLTSEDSAVYYCARGANYYGSSYNWSFDVWGAGTTVTVSS
VL: DIQMTQSPSSLSASLGGKVTITCKASQDINKYIAWYQHKPGEGPRLLIHYTSTLQPGIPSRFSGSGSGRDYSFSISNLEPEDIATYYCLQYDYLWTFGGGTKL
notes: Variable regions of FA17-9 joined to constant regions derived from human IgG1 (LONZA vector)
B1: binds [1].

B2: serine-substituted humanized FA19-1 antibody (FA19RHA and serine-substituted light chain) (antibody, V domains shown)
VH: QVQLVQSGAEVKKPGASVKVSCKASGYTFTTYIMHWVRQAPGQRLEWIGYINPYNDGTKYNEKFKGRVTVTRDTSANTAYMELSSLKSEDTAVYYCARGANYYGSNYNWSFDVWGQGTLVTVSS
VL: DIQMTQSPSSLSASVGDRVTITCRASQDINKYIAWYQQKPGKAPKLLIYHTSTLQPGVPSRFSGSGSGTDFTLTISSLQPEDFATYYCLQYDYLWTFGGGTKVEIK
notes: it is the cysteine of the CDR2 motif HTCTLQP; also called serine-substituted humanized antibody; serine-substituted antibody
B2: binds [2].

B3: 6AA-17-2 (antibody, V domains shown)
VH: EVQLQQSGAELVRPGALVKLSCKASGFNIKDYYMHWVKQRPEQGLEWIGWIDPENDNTIYDPKFQGKASITADTSSNTAYLHLSSLTSEDTAVYYCARAYGYDDYYAMEYWGQGTSVTVSS
VL: NIMMTQSPSSLAVSAGEKVTMSCKSSQSVLYSSNQKNYLAWYQQKPGQSPKLLIYWTSTRESGVPDRFTGSGSGTDFTLTISSVQAEDLAIYYCHQYLYSYTFGGGTKL
notes: Mouse monoclonal raised against the partial protein containing the FA58C domain; also called Antibody 3
B3: no binding [3]; no binding [4].
